Patent US20160264649A1

How the values were obtained:
Test in all cases: cell-based or functional assay
[1] = molecular target: HIV-1 Env of isolate MGRM-Chronic-B-003 (HIV-1)
[2] = molecular target: HIV-1 Env of isolate MGRM-Chronic-B-023 (HIV-1)
[3] = molecular target: HIV-1 Env of isolate SF162 (HIV-1) (UniProt P19550)
[4] = molecular target: HIV-1 Env of isolate MG RM-C-024 (HIV-1)
[5] = molecular target: HIV-1 Env of isolate THR0.18 (HIV-1)
[6] = molecular target: HIV-1 Env of isolate MGRM-Chronic-B-001 (HIV-1)
[7] = molecular target: HIV-1 Env of isolate QH0692.42 (HIV-1)
[8] = molecular target: HIV-1 Env of isolate MG RM-C-027 (HIV-1)
[9] = molecular target: HIV-1 Env of isolate PVO.4 (HIV-1)
[10] = molecular target: HIV-1 Env of isolate MGRM-Chronic-B-010 (HIV-1)
[11] = molecular target: HIV-1 Env of isolate MG RM-C-026 (HIV-1)
[12] = molecular target: HIV-1 Env of isolate MGRM-Chronic-B-020 (HIV-1)
[13] = molecular target: HIV-1 Env of isolate MG RM-C-020 (HIV-1)
[14] = molecular target: HIV-1 Env of isolate VLGCB3 (HIV-1)
[15] = molecular target: HIV-1 Env of isolate 93IN905 (HIV-1)
[16] = molecular target: HIV-1 Env of isolate APV_17 (HIV-1)
[17] = molecular target: HIV-1 Env of isolate MG RM-C-022 (HIV-1)
[18] = molecular target: HIV-1 Env of isolate MGRM-Chronic-B-017 (HIV-1)
[19] = molecular target: HIV-1 Env of isolate MG RM-C-025 (HIV-1)
[20] = molecular target: HIV-1 Env of isolate APV_6 (HIV-1)
[21] = molecular target: HIV-1 Env of isolate APV_13 (HIV-1)
[22] = molecular target: HIV-1 Env of isolate NL43 (HIV-1)
[23] = molecular target: HIV-1 Env of isolate JRCSF (HIV-1) (UniProt P20871)
[24] = molecular target: HIV-1 Env of isolate MGRM-Chronic-B-011 (HIV-1)
[25] = molecular target: HIV-1 Env of isolate CAAN.A2 (HIV-1)
[26] = molecular target: HIV-1 Env of isolate 93TH305 (HIV-1)
[27] = molecular target: HIV-1 Env of isolate 6535.3 (HIV-1)
[28] = molecular target: HIV-1 Env of isolate SC422661.8 (HIV-1)
[29] = molecular target: HIV-1 Env of isolate 92 BR 020 (HIV-1)
[30] = molecular target: HIV-1 Env of isolate MGRM-Chronic-B-008 (HIV-1)
[31] = molecular target: HIV-1 Env of isolate JRFL (HIV-1)
[32] = molecular target: HIV-1 Env of isolate MG RM-C-028 (HIV-1)
[33] = molecular target: HIV-1 Env of isolate TRJ04551.58 (HIV-1)
[34] = molecular target: HIV-1 Env of isolate MGRM-Chronic-B-024 (HIV-1)
[35] = molecular target: HIV-1 Env of isolate 98IN022 (HIV-1)
[36] = molecular target: HIV-1 Env of isolate TRO.11 (HIV-1)
[37] = molecular target: HIV-1 Env of isolate MGRM-Chronic-B-004 (HIV-1)
[38] = molecular target: HIV-1 Env of isolate 97ZA012 (HIV-1)
[39] = molecular target: HIV-1 Env of isolate 93MW959 (HIV-1)
[40] = molecular target: HIV-1 Env of isolate MGRM-Chronic-B-002 (HIV-1)
[41] = molecular target: HIV-1 Env of isolate MGRM-Chronic-B-012 (HIV-1)
[42] = molecular target: HIV-1 Env of isolate MGRM-Chronic-B-018 (HIV-1)
[43] = molecular target: HIV-1 Env of isolate MG RM-C-023 (HIV-1)

PGT-123 monoclonal antibody (4858_P08) gave a neutralization IC50 [1] of 0.008 µg/mL, a neutralization IC50 [2] of 0.055 µg/mL and a neutralization IC50 [3] of 5 ng/mL. For the same substance, the neutralization IC50 [4] was 0.195 µg/mL, the neutralization IC50 [5] was greater than 50 µg/mL and the neutralization IC50 [6] was 0.15 µg/mL. For the same substance, the neutralization IC50 [7] was 0.158 µg/mL, the neutralization IC50 [8] was 0.02 µg/mL and the neutralization IC50 [9] was 0.105 µg/mL. For the same substance, the neutralization IC50 [10] was 9 ng/mL, the neutralization IC50 [11] was 1 ng/mL and the neutralization IC50 [12] was 0.005 µg/mL. For the same substance, the neutralization IC50 [13] was greater than 50 µg/mL, the neutralization IC50 [14] was 4 ng/mL and the neutralization IC50 [15] was 4 ng/mL. The neutralization IC50 [16] was 0.114 µg/mL, the neutralization IC50 [17] was 0.01 µg/mL and the neutralization IC50 [18] was greater than 50 µg/mL. For the same substance, the neutralization IC50 [19] was 13.3 µg/mL, the neutralization IC50 [20] was 0.023 µg/mL and the neutralization IC50 [21] was 0.138 µg/mL. The neutralization IC50 [22] was greater than 50 µg/mL, the neutralization IC50 [23] was 46 ng/mL and the neutralization IC50 [24] was greater than 50 µg/mL. It also gave a neutralization IC50 [25] of 0.015 µg/mL, a neutralization IC50 [26] of 8 ng/mL and a neutralization IC50 [27] of 0.004 µg/mL. For the same substance, the neutralization IC50 [28] was 0.039 µg/mL, the neutralization IC50 [29] was 0.008 µg/mL and the neutralization IC50 [30] was 0.01 µg/mL. For the same substance, the neutralization IC50 [31] was 0.014 µg/mL, the neutralization IC50 [32] was 0.402 µg/mL and the neutralization IC50 [33] was 16.9 µg/mL. For the same substance, the neutralization IC50 [34] was greater than 50 µg/mL, the neutralization IC50 [35] was 0.011 µg/mL and the neutralization IC50 [36] was 0.008 µg/mL. For the same substance, the neutralization IC50 [37] was 8 ng/mL, the neutralization IC50 [38] was 0.002 µg/mL and the neutralization IC50 [39] was 0.011 µg/mL. The neutralization IC50 [40] was 0.234 µg/mL, the neutralization IC50 [41] was 0.227 µg/mL and the neutralization IC50 [42] was greater than 50 µg/mL. For the same substance, the neutralization IC50 [43] was 0.011 µg/mL.

Substance PGT-125 monoclonal antibody (5123_A06) has a neutralization IC50 [1] of 0.157 µg/mL, a neutralization IC50 [2] greater than 50 µg/mL and a neutralization IC50 [3] of 4 ng/mL. The neutralization IC50 [4] was greater than 50 µg/mL, the neutralization IC50 [5] was greater than 50 µg/mL and the neutralization IC50 [6] was greater than 50 µg/mL. It also gave a neutralization IC50 [7] of 0.048 µg/mL, a neutralization IC50 [8] greater than 50 µg/mL and a neutralization IC50 [9] of 0.042 µg/mL. For the same substance, the neutralization IC50 [10] was 6 ng/mL, the neutralization IC50 [11] was 5 ng/mL and the neutralization IC50 [12] was 0.087 µg/mL. The neutralization IC50 [13] was greater than 50 µg/mL, the neutralization IC50 [14] was 15 ng/mL and the neutralization IC50 [15] was 9 ng/mL. The neutralization IC50 [16] was 8.06 µg/mL, the neutralization IC50 [17] was 1.23 µg/mL and the neutralization IC50 [18] was greater than 50 µg/mL. For the same substance, the neutralization IC50 [19] was 42.5 µg/mL, the neutralization IC50 [20] was 0.021 µg/mL and the neutralization IC50 [21] was 0.007 µg/mL. For the same substance, the neutralization IC50 [22] was greater than 50 µg/mL, the neutralization IC50 [23] was 4 ng/mL and the neutralization IC50 [24] was 3.23 µg/mL. For the same substance, the neutralization IC50 [25] was 5.47 µg/mL, the neutralization IC50 [26] was 8 ng/mL and the neutralization IC50 [27] was 0.01 µg/mL. It also gave a neutralization IC50 [28] of 30.1 µg/mL, a neutralization IC50 [29] of 0.016 µg/mL and a neutralization IC50 [30] greater than 50 µg/mL. For the same substance, the neutralization IC50 [31] was 0.009 µg/mL, the neutralization IC50 [32] was 14 µg/mL and the neutralization IC50 [33] was 0.019 µg/mL. For the same substance, the neutralization IC50 [34] was greater than 50 µg/mL, the neutralization IC50 [35] was 22.1 µg/mL and the neutralization IC50 [36] was 0.111 µg/mL. The neutralization IC50 [37] was 7 ng/mL, the neutralization IC50 [38] was 2.46 µg/mL and the neutralization IC50 [39] was 37.5 µg/mL. For the same substance, the neutralization IC50 [40] was 0.064 µg/mL, the neutralization IC50 [41] was 0.036 µg/mL and the neutralization IC50 [42] was greater than 50 µg/mL. For the same substance, the neutralization IC50 [43] was 1.31 µg/mL.

With PGT-126 monoclonal antibody (5141_B17) the neutralization IC50 [1] was 0.041 µg/mL, the neutralization IC50 [2] was greater than 50 µg/mL and the neutralization IC50 [3] was 3 ng/mL. The neutralization IC50 [4] was greater than 50 µg/mL, the neutralization IC50 [5] was greater than 50 µg/mL and the neutralization IC50 [6] was greater than 50 µg/mL. The neutralization IC50 [7] was 0.048 µg/mL, the neutralization IC50 [8] was 15.6 µg/mL and the neutralization IC50 [9] was 0.017 µg/mL. For the same substance, the neutralization IC50 [10] was 5 ng/mL, the neutralization IC50 [11] was 7 ng/mL and the neutralization IC50 [12] was 0.021 µg/mL. For the same substance, the neutralization IC50 [13] was greater than 50 µg/mL, the neutralization IC50 [14] was 7 ng/mL and the neutralization IC50 [15] was 15 ng/mL. The neutralization IC50 [16] was 0.353 µg/mL, the neutralization IC50 [17] was 0.96 µg/mL and the neutralization IC50 [18] was greater than 50 µg/mL. For the same substance, the neutralization IC50 [19] was 0.786 µg/mL, the neutralization IC50 [20] was 0.007 µg/mL and the neutralization IC50 [21] was 0.012 µg/mL. It also gave a neutralization IC50 [22] greater than 50 µg/mL, a neutralization IC50 [23] of 8 ng/mL and a neutralization IC50 [24] of 0.108 µg/mL. For the same substance, the neutralization IC50 [25] was 0.273 µg/mL, the neutralization IC50 [26] was 13 ng/mL and the neutralization IC50 [27] was 0.022 µg/mL. The neutralization IC50 [28] was 0.119 µg/mL, the neutralization IC50 [29] was 0.015 µg/mL and the neutralization IC50 [30] was 5.89 µg/mL. It also gave a neutralization IC50 [31] of 0.014 µg/mL, a neutralization IC50 [32] of 0.196 µg/mL and a neutralization IC50 [33] of 0.025 µg/mL. It also gave a neutralization IC50 [34] greater than 50 µg/mL, a neutralization IC50 [35] of 0.279 µg/mL and a neutralization IC50 [36] of 0.041 µg/mL. For the same substance, the neutralization IC50 [37] was 10 ng/mL, the neutralization IC50 [38] was 0.042 µg/mL and the neutralization IC50 [39] was 9.44 µg/mL. It also gave a neutralization IC50 [40] of 0.078 µg/mL, a neutralization IC50 [41] of 0.027 µg/mL and a neutralization IC50 [42] of 0.052 µg/mL. For the same substance, the neutralization IC50 [43] was 0.065 µg/mL.
